# Laboratory results from the Human Domainome abundance scans (Beltran et al. 2025).
# ± gives the uncertainty stated by the source.
# Experiment: abundance fitness (aPCA) (normalised: wild type 0, dead -1); higher = more abundant; growth selection in yeast, the domain comes from the species named
# Settings: Homo sapiens
row,Substance,abundance fitness
1,"DnaJ homolog subfamily B member 1 R59K, P25685",-0.104 ± 0.11
2,"DnaJ homolog subfamily B member 1 R59L, P25685",-0.186 ± 0.099
3,"DnaJ homolog subfamily B member 1 R59M, P25685",-0.256 ± 0.19
4,"DnaJ homolog subfamily B member 1 R59N, P25685",-0.068 ± 0.14
5,"DnaJ homolog subfamily B member 1 R59P, P25685",-0.4 ± 0.15
6,"DnaJ homolog subfamily B member 1 R59Q, P25685",-0.194 ± 0.13
7,"DnaJ homolog subfamily B member 1 R59S, P25685",-0.036 ± 0.081
8,"DnaJ homolog subfamily B member 1 R59T, P25685",0.07 ± 0.1
9,"DnaJ homolog subfamily B member 1 R59V, P25685",-0.059 ± 0.071
10,"DnaJ homolog subfamily B member 1 R59W, P25685",-0.186 ± 0.14
11,"DnaJ homolog subfamily B member 1 R61A, P25685",-0.596 ± 0.16
12,"DnaJ homolog subfamily B member 1 R61C, P25685",-0.325 ± 0.15
13,"DnaJ homolog subfamily B member 1 R61D, P25685",-0.668 ± 0.18
14,"DnaJ homolog subfamily B member 1 R61E, P25685",-0.362 ± 0.11
15,"DnaJ homolog subfamily B member 1 R61F, P25685",-0.756 ± 0.18
16,"DnaJ homolog subfamily B member 1 R61G, P25685",-0.406 ± 0.1
17,"DnaJ homolog subfamily B member 1 R61I, P25685",-0.584 ± 0.13
18,"DnaJ homolog subfamily B member 1 R61K, P25685",-0.247 ± 0.16
19,"DnaJ homolog subfamily B member 1 R61L, P25685",-0.527 ± 0.076
20,"DnaJ homolog subfamily B member 1 R61M, P25685",-0.495 ± 0.14
21,"DnaJ homolog subfamily B member 1 R61N, P25685",-0.425 ± 0.1
22,"DnaJ homolog subfamily B member 1 R61Q, P25685",-0.336 ± 0.093
23,"DnaJ homolog subfamily B member 1 R61S, P25685",-0.528 ± 0.068
24,"DnaJ homolog subfamily B member 1 R61V, P25685",-0.429 ± 0.077
25,"DnaJ homolog subfamily B member 1 R61W, P25685",-0.897 ± 0.14
26,"DnaJ homolog subfamily B member 1 R61Y, P25685",-0.606 ± 0.13

row,Substance,abundance fitness
1,"DnaJ homolog subfamily B member 1 S16A, P25685",-0.167 ± 0.066
2,"DnaJ homolog subfamily B member 1 S16C, P25685",-0.185 ± 0.077
3,"DnaJ homolog subfamily B member 1 S16D, P25685",-0.174 ± 0.09
4,"DnaJ homolog subfamily B member 1 S16G, P25685",-0.074 ± 0.055
5,"DnaJ homolog subfamily B member 1 S16H, P25685",-0.24 ± 0.13
6,"DnaJ homolog subfamily B member 1 S16I, P25685",-0.371 ± 0.11
7,"DnaJ homolog subfamily B member 1 S16K, P25685",-0.188 ± 0.12
8,"DnaJ homolog subfamily B member 1 S16L, P25685",-0.297 ± 0.053
9,"DnaJ homolog subfamily B member 1 S16M, P25685",-0.258 ± 0.073
10,"DnaJ homolog subfamily B member 1 S16N, P25685",-0.059 ± 0.1
11,"DnaJ homolog subfamily B member 1 S16P, P25685",-0.123 ± 0.062
12,"DnaJ homolog subfamily B member 1 S16R, P25685",-0.158 ± 0.065
13,"DnaJ homolog subfamily B member 1 S16T, P25685",-0.057 ± 0.092
14,"DnaJ homolog subfamily B member 1 S16V, P25685",-0.301 ± 0.066
15,"DnaJ homolog subfamily B member 1 S16Y, P25685",-0.676 ± 0.073
16,"DnaJ homolog subfamily B member 1 S56A, P25685",-0.142 ± 0.085
17,"DnaJ homolog subfamily B member 1 S56C, P25685",0.022 ± 0.16
18,"DnaJ homolog subfamily B member 1 S56D, P25685",-0.551 ± 0.094
19,"DnaJ homolog subfamily B member 1 S56E, P25685",-0.496 ± 0.079
20,"DnaJ homolog subfamily B member 1 S56F, P25685",-0.526 ± 0.12
21,"DnaJ homolog subfamily B member 1 S56G, P25685",0.002 ± 0.079
22,"DnaJ homolog subfamily B member 1 S56H, P25685",-0.217 ± 0.16
23,"DnaJ homolog subfamily B member 1 S56I, P25685",-0.174 ± 0.36
24,"DnaJ homolog subfamily B member 1 S56K, P25685",-0.051 ± 0.17
25,"DnaJ homolog subfamily B member 1 S56M, P25685",-0.171 ± 0.095
26,"DnaJ homolog subfamily B member 1 S56N, P25685",-0.343 ± 0.15
